Laboratory results reported in patent publication US20260007728A1, “COMBINATION THERAPIES INVOLVING L-ASPARAGINASE” (Jazz Pharmaceuticals Ireland Ltd., priority 2022, published 2026).

Columns and labels:
[1] = tested on: cell lines with low and high ASNS expression; assay: Bliss synergy of pathway inhibitors with JZP-458 (cytotoxicity readout); type: cell-based; settings: in combination with JZP-458
Description: Combination study BLISS matrix-Bliss Assay Protocol: Cells were plated in 384-well plates in 45 μl cell culture medium at a density of, that is, at numbers of cells per well as indicated in FIG. 24. For each cell line, the optimal cell density was determined a priori to obtain an optimal assay window. Plated cells were incubated in a humidified incubator with 5% CO2 at 37° C. 24 hours post-plating, 5 μl of compound dilution was added to each well and plates were further incubated for another 72 hours after which 25 μl of ATPlite 1 Step (PerkinElmer, Groningen, The Netherlands) solution was added to each well. Luminescence was recorded on an Envision multimode reader (PerkinElmer, Waltham, MA, U.S.A.). For determination of Bliss independence scores, two drugs were added in increasing concentrations in a 6×6 matrix. […] The percent viability for each drug either alone or in combination was determined relative to control samples and the Bliss independence scores for each combination were determined as described (Liu, Q., et al., Stat Biopharm. Res. 10: 112; 2018). […]

[2] = tested on: BCL2 expression in triple hit lymphoma line WSU-DLCL2; assay: qPCR gene expression after compound treatment; type: cell-based
Description: (§1) Cell Culture: Cell culture medium: RPMI 1640 medium (#2198761, Thermo Fisher) supplemented with 10% fetal calf serum (#S00AZ, BioWest) and 1% pen/strep (#15140-122, Thermo Fisher). At day-1, 900 μl cell suspension was seeded in 24-well plates (#662165, Greiner Bio-One) at a density of 128,000 cells/well. At day 0, 100 μl compound was added in three different concentrations to reach a final concentration of 0.316×IC50, 1×IC50, and 3.16×IC50 (unless indicated otherwise). To the control samples, 100 μl 20 mM HEPES+3.16% DMSO was added instead of compound. When the compound is prepared in HEPES instead of DMSO, 20 mM HEPES without DMSO was added to the cells. The cells were collected at 6 hours, 24 hours and 48 hours after addition of the compound and were transferred to a 96-well deep well plate and centrifuged for 5 min at 340×g. Prior to the collection of the cells microscopic pictures were taken from the untreated (control) cells. After removing the medium, 200 μl RNA protect (#76526, Qiagen) was added to the cell pellet and the cells were stored at −80° C.
(§2) RNA isolation: Total RNA was isolated with the SV96 Total RNA Isolation System kit (#Z3505, Promega) according to manufacturer's instructions. The procedure includes a ‘RNAse free DNAse’ gDNA removal step.
(§3) Determining the RNA concentration: RNA concentrations were determined with the RiboGreen (#R11490, Thermo Fisher) kit according to manufacturer's instructions.
(§4) cDNA synthesis: RNA was reverse transcribed into cDNA using the Quantitect Reverse Transcript Kit (#205313, Qiagen) according to manufacturer's instructions. This procedure includes a second ‘RNAse free DNAse’ gDNA removal step, ensuring the complete removal of gDNA from the samples. For each time point (6 h, 24 h, or 48 h) identical volumes of RNA were used for cDNA synthesis. After synthesis, cDNA is diluted with nuclease free water to obtain approximately similar cDNA concentrations per sample.
(§5) qPCR: 1) 50° C. for 10 min (Uracil-DNA glycosylase ([…]) step to remove all potential traces of amplicon DNA from previous qPCRs); 2) 5 min UDP inactivation/denaturation at 95° C.; 3) 40 cycles of 10s denaturation at 95° C., 20s annealing at 60° C., and 30s extension at 72° C.; and 4) Dissociation curve to determine the melting temperature of the qPCR amplicon.
(§6) qPCR Data Analysis: Cq and Tm raw data values are determined by the BioRad CFX manager software from the PCR machine. For every PCR sample that produced a Cq value the corresponding melting temperature of the PCR amplicon (Tm) was checked to identify samples that generated dual or a specific PCR products. A PCR product is regarded a specific when its Tm is >0.5° C. different from that the Tm of the specific PCR amplicon, in this case the Cq value is removed and not used for further data analysis. Cq values were than normalized by subtracting the (mean) Cq value of the two housekeeping genes (ACTB & RPS18) from the Cq value of the gene of interest. The normalized value is called DCq. The Cq difference between sample and the control (DDCq) was calculated by subtracting DCq control from DCq sample. The fold difference in expression between the control (no compound) and the compound treated sample is than calculated according the 2^-DDCq method.

[3] = Aggregation of asparaginase batches; type: physicochemical; settings: product batches
Description: In some embodiments, the recombinant L-asparaginase of the disclosure has greater purity than other L-asparaginases. […] In some embodiments, the amount of aggregation of the recombinant L-asparaginase is less than 10%, 9%, 8%, 7%, 6%, 5%, 4%, 3%, 2%, 1%, 0.5%, 0.25%, 0.2%, 0.1%, or 0.01%. In some embodiments, the amount of aggregation seen in compositions containing the recombinant L-asparaginase is less than 1-10%. In some embodiments, the amount of aggregation seen in compositions containing the recombinant L-asparaginase is less than 10%. In some embodiments, the amount of aggregation of the recombinant L-asparaginase is less than 9%. In some embodiments, the amount of aggregation of the recombinant L-asparaginase is less than 8%. In some embodiments, the amount of aggregation of the recombinant L-asparaginase is less than 7%. In some embodiments, the amount of aggregation of the recombinant L-asparaginase is less than 6%. In some embodiments, the amount of aggregation of the recombinant L-asparaginase is less than 5%. In some embodiments, the amount of aggregation of the recombinant L-asparaginase is less than 4%. In some embodiments, the amount of aggregation of the recombinant L-asparaginase is less than 3%. In some embodiments, the amount of aggregation of the recombinant L-asparaginase is less than 2%. […]

[4] = Half life of asparaginases; settings: in vivo
[5] = In vivo tolerability study in naïve SCID mice; settings: 150 U/kg in combination with venetoclax and R-CHOP constituents
Description: Sensitivity to asparaginase and 11 chemotherapeutic agents (carfilzomib, doxorubicin, rapamycin, ibrutinib, cyclophosphamide, prednisolone, metformin, venetoclax, navitoclax, rituximab and vincristine) determined in 8 lymphoma lines, including diffuse large B-cell and Burkitt lymphomas. The investigated lymphoma lines are sensitive to asparagine depletion within the clinically achievable range. Expression of decisive genes (BCL2, BCL6, BCL2L1, MYC, ASNS) determined in 8 lymphoma lines (FIGS. 11 and 12). Increased expression of BCL2 served as marker for resistance of ibrutinib and rapamycin in triple hit lymphoma (FIGS. 11 and 12). Increased expression of ASNS served as marker for resistance of carfilzomib and asparaginase in Burkitt lymphoma (FIGS. 11 and 12). Identified combination agents that enhanced asparaginase activity in vitro include synergy of JZP458 and rituximab, venetoclax and ibrutinib in lymphoma lines (DLBCL) (see FIG. 13, FIG. 15, and FIG. 17). […] In vivo tolerability study of long acting Erwinia Asparaginase.

[6] = tested on: liquid tumors with NRAS mutations; assay: Sensitivity to L-asparaginase across cell line panel by NRAS status; type: cell-based; settings: NRAS mutant vs other lines
Description: Sensitivity to L-asparaginase was determined in 140 lines across multiple indications. In silico tandem perturbation effects of Asparagine synthetase and signaling components analyzed (≈700 lines). A subset of lines are ASNS dependent for survival (see McDonald, E. Robert et al. (2017). Project DRIVE: A Compendium of Cancer Dependencies and Synthetic Lethal Relationships Uncovered by Large-Scale, Deep RNAi Screening. Cell 170, 577-592 and https://oncologynibr.shinyapps.io/drive/which is herein incorporated by reference to show expression of ASNS and sensitivity to asparagine depletion). In vitro, most lines are sensitive to asparagine depletion within a clinically achievable range (see FIG. 6).

[7] = tested on: BCL2 expression in DLBCL lines (ABC and GCB type); assay: qPCR gene expression after compound treatment; type: cell-based
Description: as §1, §2, §3, §4, §5, §6

[8] = tested on: ASNS expression in Burkitt lymphoma lines; assay: qPCR gene expression after compound treatment; type: cell-based
Description: as §1, §2, §3, §4, §5, §6

CO[C@H]1C[C@@H]2CC[C@@H](C)[C@@](O)(O2)C(=O)C(=O)N2CCCC[C@H]2C(=O)O[C@H]([C@H](C)C[C@@H]2CC[C@@H](OCCO)[C@H](OC)C2)CC(=O)[C@H](C)/C=C(\C)[C@@H](O)[C@@H](OC)C(=O)[C@H](C)C[C@H](C)/C=C/C=C/C=C/1C [everolimus]
Bliss sum score compared with PI3K inhibitors and MEK inhibitors [1]: increased

C=CC(=O)N1CCC[C@@H](n2nc(-c3ccc(Oc4ccccc4)cc3)c3c(N)ncnc32)C1 [ibrutinib]
increase of BCL2 expression [2]: 1.25 fold

CO[C@H]1C[C@@H]2CC[C@@H](C)[C@@](O)(O2)C(=O)C(=O)N2CCCC[C@H]2C(=O)O[C@H]([C@H](C)C[C@@H]2CC[C@@H](O)[C@H](OC)C2)CC(=O)[C@H](C)/C=C(\C)[C@@H](O)[C@@H](OC)C(=O)[C@H](C)C[C@H](C)/C=C/C=C/C=C/1C [rapamycin]
increase of BCL2 expression [2]: 1 fold

B1: Erwinase: Erwinia chrysanthemi L-asparaginase type II product commercially approved for ALL (protein, UniProt P06608 22-348, looked up)
L-asparaginase: ADKLPNIVILATGGTIAGSAATGTQTTGYKAGALGVDTLINAVPEVKKLANVKGEQFSNMASENMTGDVVLKLSQRVNELLARDDVDGVVITHGTDTVEESAYFLHLTVKSDKPVVFVAAMRPATAISADGPMNLLEAVRVAGDKQSRGRGVMVVLNDRIGSARYITKTNASTLDTFKANEEGYLGVIIGNRIYYQNRIDKLHTTRSVFDVRGLTSLPKVDILYGYQDDPEYLYDAAIQHGVKGIVYAGMGAGSVSVRGIAGMRKAMEKGVVVIRSTRTGNGIVPPDEELPGLVSDSLNPAHARILLMLALTRTSDPKVIQEYFHTY
aggregation [3]: about 6%

B2: JZP341: pasylated L-asparaginase; long acting Erwinia asparaginase (protein, UniProt P06608 22-348, looked up)
L-asparaginase: B1 L-asparaginase
modifications: PASylated
half life t½ [4]: ~16 h
tolerability [5]: tolerated

B3: JZP-458: recombinant, unfunctionalized, short acting Erwinia L-asparaginase (SEQ ID NO: 1 tetramer) (protein, listed as Dickeya chrysanthemi)
chain: B1 L-asparaginase
modifications: homotetramer
sensitivity of liquid tumors with NRAS mutations [6]: more sensitive
change of BCL2 expression [7]: decrease
change of ASNS expression ([8]; Burkitt lymphoma lines): significantly increase
increase of ASNS expression ([8]; Burkitt lymphoma lines (BJAB, RAJI, RAMOS), after treatment): 0.75 fold
half life t½ [4]: ~2.13 h
